# According to publication PMC3303177:
# Tests used:
# [1] = target: His-GAS41 (UniProt O95619 1-227); assay: EMSA
# [2] = target: GST-AP-2β (UniProt Q92481 1-460); assay: EMSA
# GST-AP-2β, sequence (Q92481 whole entry): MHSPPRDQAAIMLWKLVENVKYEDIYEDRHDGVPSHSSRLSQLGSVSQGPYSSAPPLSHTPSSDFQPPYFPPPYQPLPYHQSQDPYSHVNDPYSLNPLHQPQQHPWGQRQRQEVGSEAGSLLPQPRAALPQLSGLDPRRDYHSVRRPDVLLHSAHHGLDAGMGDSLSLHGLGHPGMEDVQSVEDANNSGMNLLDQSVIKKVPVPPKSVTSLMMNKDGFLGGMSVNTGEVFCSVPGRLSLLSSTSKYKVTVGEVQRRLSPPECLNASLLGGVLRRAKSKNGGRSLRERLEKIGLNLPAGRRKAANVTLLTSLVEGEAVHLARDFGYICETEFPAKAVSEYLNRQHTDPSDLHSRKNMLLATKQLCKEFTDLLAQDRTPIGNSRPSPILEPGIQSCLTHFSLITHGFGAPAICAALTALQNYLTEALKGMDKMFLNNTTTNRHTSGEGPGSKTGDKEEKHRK
# His-GAS41, sequence (O95619 whole entry): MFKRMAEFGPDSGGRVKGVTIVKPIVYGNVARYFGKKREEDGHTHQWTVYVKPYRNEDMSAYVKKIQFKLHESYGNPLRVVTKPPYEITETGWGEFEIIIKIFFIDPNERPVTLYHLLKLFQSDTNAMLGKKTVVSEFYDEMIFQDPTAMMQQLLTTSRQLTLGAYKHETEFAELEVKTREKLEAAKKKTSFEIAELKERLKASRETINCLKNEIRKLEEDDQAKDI
binder,measurement,setting,value
hMT AP-2 consensus probe (dsDNA) DNA 1: TGACCGCCCGCGGCCCGTG DNA 2: CACGGGCCGCGGGCGCTCA,binding result,[1],no binding
same,binding result,[2],binds
